The subject of series [1] is T1, XreR2 (Photorhabdus luminescens DJC), ORF:b2ab5127.
T1 sequence: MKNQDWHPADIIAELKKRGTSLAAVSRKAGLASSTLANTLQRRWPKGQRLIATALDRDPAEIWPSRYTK
Briefly: MST. Particulars: SPR (Biacore 3000, SA chip), proteins in dialysis buffer: 50 mM Tris/HCl pH 7.5, 10% glycerol, 500 mM NaCl, 2 mM beta-mercaptoethanol; 25 C; 30 ul/min; 1:1 …. Background: SPR reads the build-up and loss of mass on a sensor chip optically.

The test system of series [2] is T2, XreR1 (Photorhabdus luminescens DJC), ORF:d6b45183.
T2 sequence: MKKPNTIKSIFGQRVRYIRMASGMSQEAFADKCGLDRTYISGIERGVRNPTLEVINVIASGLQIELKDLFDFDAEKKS
Briefly: SPR. Particulars: SPR (Biacore 3000, SA chip), proteins in dialysis buffer: 50 mM Tris/HCl pH 7.5, 10% glycerol, 500 mM NaCl, 2 mM beta-mercaptoethanol; 25 C; 30 ul/min; 1:1 ….

Series [3] concerns T1, XreR2 (Photorhabdus luminescens DJC), ORF:b2ab5127. Briefly: SPR. Particulars: SPR (Biacore 3000, SA chip), proteins in dialysis buffer: 50 mM Tris/HCl pH 7.5, 10% glycerol, 500 mM NaCl, 2 mM beta-mercaptoethanol; 25 C; 30 ul/min; 1:1 ….
The subject of series [4] is XreR1 (Photorhabdus luminescens DJC). Briefly: SPR. Particulars: SPR (Biacore 3000, SA chip), proteins in dialysis buffer: 50 mM Tris/HCl pH 7.5, 10% glycerol, 500 mM NaCl, 2 mM beta-mercaptoethanol, 25 C, 30 ul/min, 1:1 ….
Series [5] concerns T2, XreR1 (Photorhabdus luminescens DJC), ORF:d6b45183. Kind of series: MST. Particulars: SPR (Biacore 3000, SA chip), proteins in dialysis buffer: 50 mM Tris/HCl pH 7.5, 10% glycerol, 500 mM NaCl, 2 mM beta-mercaptoethanol; 25 C; 30 ul/min; 1:1 ….

Among the data in publication PMC7905540 are binding and Kd values, retold here.

In general, Kd refers to the equilibrium constant for the complex coming apart.

For “GTTTCATAGCACACCTCAGAAACACACTTAAAATGAACATGAGGAAATGGATTGCGAGCAGGAAAAGATAAATGCAAACAGCTATAAGTAATCATTACTCTTACCGAATGATATAAAGTAGATTGGAGCAGCTTATCTCATTGATAAACTACTCCACTTTAATTTACAGCCAC (double strand) [PpTAS]”, the binding result is listed as “binds” in series [1], “no binding” in series [2] and “binds” in series [3].
In series [4] (ka 4.5E+06 1/Ms, kd 2.9E-3 1/s), PxreR1 registered a Kd of 0.6 nM.
Take “GGGTGCCAGTCTTGATTTTTCATTAATTAATCCTCCGTGTTACGGATAACTTTGATATGAAAAGGTAAGTCGTTACATAGTAGACTATAAGTCACATATGATAACATAACTTACCATAAAAAGTGACTCATAGTCCGTGGTCTGATAAGTAACATCATTCGATACTTATCAG (double strand) [PxreR2]”: the binding entry in series [5], in series [1] and in series [3] was “binds” each time. The substance further returned a Kd in series [2] of 0.3 nM.
For PxreR2, the Kd in series [4] (ka printed 2.8E+05 1/Ms, kd 8.9E-4 1/s (ratio inconsistent with the printed KD)) is 0.3 nM.
